How the values were obtained:
[1] = molecular target: integrin β1 subunit (β1 integrins) on 1064SK fibroblasts (human) (UniProt P05556); assay: cell-based or functional assay
[2] = molecular target: integrin α6β1 on human cells (1064SK fibroblasts, endothelial cells) (human) (UniProt P23229); assay: cell-based or functional assay
[3] = molecular target: integrin α5β1 (fibronectin receptor) on 1064SK fibroblasts (human) (UniProt P08648); assay: cell-based or functional assay
[4] = molecular target: integrin α1 subunit on 1064SK fibroblasts (human) (UniProt P56199); assay: cell-based or functional assay
Chain of integrin α1 subunit on 1064SK fibroblasts (human) (P56199 29-1179): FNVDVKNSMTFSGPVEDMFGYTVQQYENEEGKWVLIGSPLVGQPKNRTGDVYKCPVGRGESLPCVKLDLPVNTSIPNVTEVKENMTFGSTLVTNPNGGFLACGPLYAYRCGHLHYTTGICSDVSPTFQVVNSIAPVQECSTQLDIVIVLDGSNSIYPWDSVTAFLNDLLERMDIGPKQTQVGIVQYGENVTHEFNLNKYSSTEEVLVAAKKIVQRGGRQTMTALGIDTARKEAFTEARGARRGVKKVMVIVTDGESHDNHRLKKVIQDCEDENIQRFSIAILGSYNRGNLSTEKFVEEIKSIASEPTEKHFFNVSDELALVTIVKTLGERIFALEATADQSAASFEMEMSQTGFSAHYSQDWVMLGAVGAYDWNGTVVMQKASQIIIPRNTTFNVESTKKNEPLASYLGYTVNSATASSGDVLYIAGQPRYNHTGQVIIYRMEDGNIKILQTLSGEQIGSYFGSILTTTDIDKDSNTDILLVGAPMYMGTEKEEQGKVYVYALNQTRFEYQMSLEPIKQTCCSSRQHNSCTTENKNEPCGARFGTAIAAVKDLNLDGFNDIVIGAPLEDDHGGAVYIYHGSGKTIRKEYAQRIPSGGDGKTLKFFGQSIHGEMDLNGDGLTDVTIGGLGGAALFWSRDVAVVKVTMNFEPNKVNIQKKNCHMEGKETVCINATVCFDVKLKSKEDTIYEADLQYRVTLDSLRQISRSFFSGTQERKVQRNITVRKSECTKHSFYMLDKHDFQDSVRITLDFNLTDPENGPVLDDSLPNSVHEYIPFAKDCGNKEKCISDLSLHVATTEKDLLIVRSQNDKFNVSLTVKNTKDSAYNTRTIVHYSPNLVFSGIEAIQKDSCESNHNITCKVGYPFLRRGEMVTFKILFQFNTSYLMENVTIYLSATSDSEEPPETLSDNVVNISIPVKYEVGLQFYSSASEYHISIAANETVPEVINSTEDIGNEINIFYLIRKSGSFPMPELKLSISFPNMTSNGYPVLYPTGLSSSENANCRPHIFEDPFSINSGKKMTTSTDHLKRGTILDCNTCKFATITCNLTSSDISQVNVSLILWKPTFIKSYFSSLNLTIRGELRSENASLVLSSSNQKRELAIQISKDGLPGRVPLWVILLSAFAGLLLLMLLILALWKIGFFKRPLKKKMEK

[5] = molecular target: integrin α2 subunit on 1064SK fibroblasts (human) (UniProt P17301); assay: cell-based or functional assay
[6] = molecular target: αvβ3 integrin on human cells (HUVE cells, fibroblasts, platelets) (human) (UniProt P06756); assay: cell-based or functional assay
[7] = molecular target: integrin α3 subunit on 1064SK fibroblasts (human) (UniProt P26006); assay: cell-based or functional assay
[8] = molecular target: integrin αv subunit (αv integrins αvβ1, αvβ3, αvβ5) on 1064SK fibroblasts (human) (UniProt P06756); assay: cell-based or functional assay
Chain of integrin αv subunit (αv integrins αvβ1, αvβ3, αvβ5) on 1064SK fibroblasts (human) (P06756 31-1048): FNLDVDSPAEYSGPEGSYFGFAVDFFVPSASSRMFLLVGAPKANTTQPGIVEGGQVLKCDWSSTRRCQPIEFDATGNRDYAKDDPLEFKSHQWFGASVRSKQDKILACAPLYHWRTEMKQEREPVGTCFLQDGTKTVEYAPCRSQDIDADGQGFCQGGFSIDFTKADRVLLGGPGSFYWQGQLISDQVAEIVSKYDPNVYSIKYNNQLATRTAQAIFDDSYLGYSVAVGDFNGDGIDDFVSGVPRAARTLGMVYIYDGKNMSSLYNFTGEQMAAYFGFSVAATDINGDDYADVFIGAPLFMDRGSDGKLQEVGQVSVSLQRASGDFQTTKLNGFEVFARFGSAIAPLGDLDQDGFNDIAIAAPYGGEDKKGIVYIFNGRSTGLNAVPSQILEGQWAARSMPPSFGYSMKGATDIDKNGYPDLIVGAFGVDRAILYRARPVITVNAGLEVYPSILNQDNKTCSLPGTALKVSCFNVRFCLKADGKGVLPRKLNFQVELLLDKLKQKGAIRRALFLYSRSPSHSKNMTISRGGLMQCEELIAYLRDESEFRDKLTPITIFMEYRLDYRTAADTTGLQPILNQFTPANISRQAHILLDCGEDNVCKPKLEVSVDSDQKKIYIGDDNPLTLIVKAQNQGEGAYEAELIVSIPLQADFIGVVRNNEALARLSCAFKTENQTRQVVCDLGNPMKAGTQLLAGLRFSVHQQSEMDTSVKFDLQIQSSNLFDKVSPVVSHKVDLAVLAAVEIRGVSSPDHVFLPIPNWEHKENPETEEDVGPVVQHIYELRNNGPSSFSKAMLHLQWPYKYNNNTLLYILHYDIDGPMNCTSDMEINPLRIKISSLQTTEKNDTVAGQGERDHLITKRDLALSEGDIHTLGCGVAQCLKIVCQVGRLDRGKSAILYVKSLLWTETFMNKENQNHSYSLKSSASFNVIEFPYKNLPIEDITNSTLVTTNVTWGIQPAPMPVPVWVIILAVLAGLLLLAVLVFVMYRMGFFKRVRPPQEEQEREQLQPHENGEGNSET

[9] = molecular target: integrin α4 subunit on 1064SK fibroblasts (human) (UniProt P13612); assay: cell-based or functional assay
Chain of integrin α4 subunit on 1064SK fibroblasts (human) (P13612 34-1032): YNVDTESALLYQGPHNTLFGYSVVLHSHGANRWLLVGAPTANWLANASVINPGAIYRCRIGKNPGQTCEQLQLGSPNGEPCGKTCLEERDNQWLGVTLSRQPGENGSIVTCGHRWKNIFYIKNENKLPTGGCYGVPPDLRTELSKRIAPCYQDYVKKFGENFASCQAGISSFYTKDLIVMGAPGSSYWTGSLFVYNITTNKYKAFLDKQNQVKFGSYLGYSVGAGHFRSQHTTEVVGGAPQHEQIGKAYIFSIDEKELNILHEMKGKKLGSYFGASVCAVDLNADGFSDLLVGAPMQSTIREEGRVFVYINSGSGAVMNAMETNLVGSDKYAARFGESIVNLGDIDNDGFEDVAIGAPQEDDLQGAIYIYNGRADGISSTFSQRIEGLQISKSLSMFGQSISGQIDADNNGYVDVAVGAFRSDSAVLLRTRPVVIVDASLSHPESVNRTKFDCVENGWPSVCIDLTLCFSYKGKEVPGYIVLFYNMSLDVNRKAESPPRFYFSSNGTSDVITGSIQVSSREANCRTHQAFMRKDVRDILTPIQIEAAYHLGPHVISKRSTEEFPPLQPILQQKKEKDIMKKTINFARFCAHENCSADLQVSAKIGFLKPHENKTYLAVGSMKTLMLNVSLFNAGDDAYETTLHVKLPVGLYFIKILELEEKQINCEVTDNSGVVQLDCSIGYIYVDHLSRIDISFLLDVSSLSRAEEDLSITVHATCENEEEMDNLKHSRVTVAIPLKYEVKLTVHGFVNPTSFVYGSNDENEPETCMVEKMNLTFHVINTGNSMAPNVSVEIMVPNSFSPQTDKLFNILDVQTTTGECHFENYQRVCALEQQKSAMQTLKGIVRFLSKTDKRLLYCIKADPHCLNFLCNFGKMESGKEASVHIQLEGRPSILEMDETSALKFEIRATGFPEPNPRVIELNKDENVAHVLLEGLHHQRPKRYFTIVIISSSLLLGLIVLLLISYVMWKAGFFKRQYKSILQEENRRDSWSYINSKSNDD

[10] = molecular target: Fisp12/mCTGF (mouse) (UniProt P29268); assay: solid-phase binding isotherm: varied RGD-affinity purified αIIbβ3 on immobilized Fisp12/mCTGF, detected with 125I-mAb15; saturable

Chain of integrin β1 subunit (β1 integrins) on 1064SK fibroblasts (human) (P05556 21-798): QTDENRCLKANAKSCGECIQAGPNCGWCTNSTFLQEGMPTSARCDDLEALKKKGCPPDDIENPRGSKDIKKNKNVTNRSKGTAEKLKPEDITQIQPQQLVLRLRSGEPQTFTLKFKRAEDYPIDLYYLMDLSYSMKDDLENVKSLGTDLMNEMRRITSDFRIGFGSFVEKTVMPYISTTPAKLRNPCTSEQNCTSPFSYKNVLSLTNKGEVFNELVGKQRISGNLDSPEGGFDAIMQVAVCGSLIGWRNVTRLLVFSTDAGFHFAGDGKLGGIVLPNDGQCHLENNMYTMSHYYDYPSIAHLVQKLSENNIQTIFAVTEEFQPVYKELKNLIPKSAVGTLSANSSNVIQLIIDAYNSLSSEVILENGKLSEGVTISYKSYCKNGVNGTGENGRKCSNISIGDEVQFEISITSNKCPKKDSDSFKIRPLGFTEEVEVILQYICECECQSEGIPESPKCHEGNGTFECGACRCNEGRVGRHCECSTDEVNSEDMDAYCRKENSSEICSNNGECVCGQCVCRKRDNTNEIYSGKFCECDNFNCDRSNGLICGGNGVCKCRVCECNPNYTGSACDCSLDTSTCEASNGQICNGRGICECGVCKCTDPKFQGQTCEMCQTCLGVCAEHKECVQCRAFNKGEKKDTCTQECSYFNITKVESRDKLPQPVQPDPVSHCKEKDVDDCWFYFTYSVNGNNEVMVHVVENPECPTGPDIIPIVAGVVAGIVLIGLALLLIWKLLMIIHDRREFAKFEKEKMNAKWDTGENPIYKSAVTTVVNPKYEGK
Chain of integrin α6β1 on human cells (1064SK fibroblasts, endothelial cells) (human) (P23229 24-1130, chain 1 of 2): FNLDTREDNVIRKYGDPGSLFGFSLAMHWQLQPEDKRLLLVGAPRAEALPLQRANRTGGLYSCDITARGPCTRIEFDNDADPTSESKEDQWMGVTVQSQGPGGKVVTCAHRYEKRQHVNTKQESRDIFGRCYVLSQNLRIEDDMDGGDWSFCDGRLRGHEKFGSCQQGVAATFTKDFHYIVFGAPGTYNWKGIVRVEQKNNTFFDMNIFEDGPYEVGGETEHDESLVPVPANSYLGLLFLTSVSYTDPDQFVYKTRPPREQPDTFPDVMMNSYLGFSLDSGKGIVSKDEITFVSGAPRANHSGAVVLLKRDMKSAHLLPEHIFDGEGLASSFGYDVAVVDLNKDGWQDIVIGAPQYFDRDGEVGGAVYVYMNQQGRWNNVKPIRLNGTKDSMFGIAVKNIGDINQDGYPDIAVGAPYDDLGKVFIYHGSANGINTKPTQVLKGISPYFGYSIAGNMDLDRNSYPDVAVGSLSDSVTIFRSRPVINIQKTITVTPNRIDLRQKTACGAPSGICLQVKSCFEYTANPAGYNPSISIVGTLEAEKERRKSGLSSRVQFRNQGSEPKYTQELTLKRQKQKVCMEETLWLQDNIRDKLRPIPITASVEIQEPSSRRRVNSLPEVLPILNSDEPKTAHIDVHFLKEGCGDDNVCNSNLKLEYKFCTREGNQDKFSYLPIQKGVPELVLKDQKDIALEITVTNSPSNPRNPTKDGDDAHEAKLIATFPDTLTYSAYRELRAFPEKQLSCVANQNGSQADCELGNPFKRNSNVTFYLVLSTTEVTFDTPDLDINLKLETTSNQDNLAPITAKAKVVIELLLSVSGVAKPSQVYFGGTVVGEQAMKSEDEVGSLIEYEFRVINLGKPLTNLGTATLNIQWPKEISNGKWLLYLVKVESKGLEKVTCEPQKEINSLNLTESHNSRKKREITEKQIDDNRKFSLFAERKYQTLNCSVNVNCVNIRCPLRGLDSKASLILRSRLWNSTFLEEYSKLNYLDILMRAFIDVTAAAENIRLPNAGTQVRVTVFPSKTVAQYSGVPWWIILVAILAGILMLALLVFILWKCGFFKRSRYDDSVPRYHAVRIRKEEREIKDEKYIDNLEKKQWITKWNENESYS
Chain of integrin α6β1 on human cells (1064SK fibroblasts, endothelial cells) (human) (P05556 21-798, chain 2 of 2, further chain): as the sequence (P05556 21-798) above

Q: What does the source list for “rat tail Type-I collagen (from UniProt P02454 152-1207; P02466 86-1125) (ligand)”?
A: A620, 1064SK adhesion to type I collagen (2 µg/ml) after anti-β1 antibody JB1A; 0.56 without antibody [1]: 0.21 A620; percent inhibition of 1064SK adhesion to type I collagen by anti-β1 antibody JB1A [1]: 62%

Q: Which A620, 1064SK adhesion to Cyr61 (2 µg/ml) after anti-α6 antibody (20 µg/ml); 0.53 without antibody [2] does the source give for “human Cyr61 (from UniProt O00622 25-381) (ligand)” here?
A: 0.08 A620

Q: And the percent inhibition of 1064SK adhesion to Cyr61 by anti-α6 antibody [2]?
A: > 80%

Q: And the percent inhibition of 1064SK adhesion to wild-type Cyr61 by anti-α6 antibody (20 µg/ml) [2]?
A: 78%

Q: And the A620, 1064SK adhesion to Cyr61 (2 µg/ml) after anti-α5 antibody (40 µg/ml); no addition 0.75 [3]?
A: 0.77 A620

Q: And the A620, 1064SK adhesion to Cyr61 (2 µg/ml) after anti-α1 antibody (40 µg/ml); control without antibody 0.58 [4]?
A: 0.54 A620

Q: And the A620, 1064SK adhesion to Cyr61 (2 µg/ml) after anti-α2 antibody (40 µg/ml); control without antibody 0.58 [5]?
A: 0.6 A620

Q: And the relative binding capacity of HUVE cells on wild-type Cyr61 (5 µg/ml) after anti-αvβ3 antibody LM609 (40 µg/ml); no pre-incubation = 100 [6]?
A: 42%

Q: What about the A620, 1064SK adhesion to Cyr61 (2 µg/ml) after anti-β1 antibody JB1A (50 µg/ml); 0.53 without antibody [1] of the same substance?
A: 0.14 A620

Q: And the percent inhibition of 1064SK adhesion to Cyr61 by anti-β1 antibody JB1A [1]?
A: 75%

Q: And the A620, 1064SK adhesion to Cyr61 (2 µg/ml) after anti-α3 antibody (40 µg/ml); control without antibody 0.58 [7]?
A: 0.55 A620

Q: And the A620, 1064SK adhesion to Cyr61 (2 µg/ml) after anti-αv antibody (40 µg/ml); no addition 0.75 [8]?
A: 0.73 A620

Q: And the A620, 1064SK adhesion to Cyr61 (2 µg/ml) after anti-α4 antibody (40 µg/ml); control without antibody 0.58 [9]?
A: 0.56 A620

Q: Which half-saturation concentration [10] does the source give for “activated αIIbβ3 (RGD-affinity purified from human platelet lysates) (from UniProt P08514 32-1039; P05106 27-788) (receptor)” here?
A: 15 nM

Q: Which A620, 1064SK adhesion to laminin (5 µg/ml) after anti-α6 antibody; 0.62 without antibody [2] does the source give for mouse laminin (ligand) here?
A: 0.48 A620

Q: What about the percent inhibition of 1064SK adhesion to laminin by anti-α6 antibody [2] of the same substance?
A: 22%
